Paper PMC4294672 (Molecular Biology of the Cell, 2015)
Like-named read-outs stand apart in the source and are kept apart here.

T1: 3FLAG-Gef3 (S. pombe, UniProt O59679 1-525)
T1 sequence: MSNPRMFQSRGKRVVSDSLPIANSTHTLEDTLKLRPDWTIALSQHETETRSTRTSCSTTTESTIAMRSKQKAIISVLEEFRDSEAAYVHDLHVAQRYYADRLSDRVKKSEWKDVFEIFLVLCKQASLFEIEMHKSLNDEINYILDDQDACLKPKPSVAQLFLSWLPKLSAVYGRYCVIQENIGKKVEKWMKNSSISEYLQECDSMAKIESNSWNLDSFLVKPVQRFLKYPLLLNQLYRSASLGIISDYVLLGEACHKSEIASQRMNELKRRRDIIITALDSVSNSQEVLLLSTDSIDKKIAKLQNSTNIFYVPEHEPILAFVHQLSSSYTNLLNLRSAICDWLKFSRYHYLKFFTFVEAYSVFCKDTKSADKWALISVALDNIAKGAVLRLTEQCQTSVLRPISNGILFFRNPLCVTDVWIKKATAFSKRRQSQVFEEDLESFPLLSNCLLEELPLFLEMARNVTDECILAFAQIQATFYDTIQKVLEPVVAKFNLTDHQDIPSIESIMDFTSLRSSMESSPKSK

B1: GST-Rho5 (enzyme)
chain: MTTELRRKLVIVGDGACGKTCLLIVFSKGTFPEVYVPTVFENYVADVEVDGRHIELALWDTAGQEDYDRLRPLSYPDSHVVLICFSVDAPESLDNVQEKWISEVLHFCSNLPILLVGCKVDLRNDPKTIEELSKTSQKPITFEEGQVVAQKIGAYKYLECSAKLNEGVNEVFETAARASMLKFKPASVPKTKKKKHCILL
B2: GST-Rho4 (enzyme)
chain: MSAFKKSGSKSETSKKLVVVGDGGCGKTCLLIVFSSGTFPERYVPTVFENYITDITYGPNSKVIELALWDTAGQEEYDRLRPLSYPNSNVILLCFSIDCPASLNNVTEKWYPEVQHFCPRTPIVLVGLKADLRKDRNATEVLRTQGLTPVTYQQAQSVALSMNAPYVECSAKENTGVNEVFQLAVGLTIKKSFSFSKKSCVIL
B3: hexahistidine (6His)-tagged Gef3 (natural protein)
chain: T1 sequence
B4: GST-Rho2 (enzyme)
chain: MLQSQPIRRKLVVVGDGACGKTSLLSVFTLGYFPTEYVPTVFENYVSDCRVDGKSVQLALWDTAGQEEYERLRPMSYAKAHIILVGFAIDSPDSLENVSTKWIEEINTLCPNVPFILVGMKADLRSDPVAIEEMRRRNQNFVKSQQAELVAQRIGARKYMECSSLTGDGVDDVFEAATRAALTVRDSENDKSSTKCCIIS
B5: GST-Rho1 (enzyme)
chain: MATELRRKLVIVGDGACGKTCLLIVFSKGTFPEVYVPTVFENYVADVEVDGRHVELALWDTAGQEDYDRLRPLSYPDSHVILICFAVDSPDSLDNVQEKWISEVLHFCSSLPILLVACKADLRNDPKIIEELSKTNQHPVTTEEGQAVAQKIGAYKYLECSAKTNEGVREVFESATRAAMLKHKPKVKPSSGTKKKKRCILL

Legend:
Assay in all cases: pull-down
3FLAG-Gef3 [1] = target: T1, 3FLAG-Gef3
[2] = target: B3
3FLAG-Gef3 [3] = target: T1, 3FLAG-Gef3; remark: listed apart in the source
GST-Rho4 = target: B2

Binder | binding result (3FLAG-Gef3 [1]) | binding result [2] | binding result (3FLAG-Gef3 [3]) | fold more pulled down than by the GST control (GST-Rho4)
B1 | binds | binds | – | –
B2 | – | – | binds | –
B3 | – | – | – | ~35 times
B4 | binds | – | – | –
B5 | – | binds | binds | –
